# Key:
# [1] = molecular target: FLAG-tagged, point mutated Bcl10 (R228/G) (human) (UniProt O95999); experiment: cell-based or functional assay
# [2] = molecular target: human Bcl10 (hBcl10), endogenous in the cells used (human) (UniProt O95999); experiment: cell-based or functional assay
Substance,"relative NF-κB activity (dual luciferase assay), percent of the maximum levels (wt Bcl10) [1] [%]","relative NF-κB activity (dual luciferase assay), percent of the maximum level achieved with wt Malt1 [2] [%]"
"human Malt1 (hMalt1), endogenous in the cells used (from UniProt Q9UDY8 1-824) (enzyme)",75,
Malt1 with deletion of the caspase-like domain (Δcasp) or mutation of the active site residues Cys 464 or His 415,,50 to 65

# From EP2015073A1
